{
  "source": "patent US10280197B2",
  "about": "“Discovery of the first selective C5A receptor 2 (C5L2/C5AR2) ligands” (The Regents of the University of California, priority 2015, dated 2019)",
  "key": {"[1]": {"molecular_target": "T1, human C5a2 (Flp-In CHO-C5a2 membranes) (Homo sapiens, UniProt Q9P296)", "T1 construct": "expressed in transfected cells", "T1 sequence (Q9P296 whole entry)": "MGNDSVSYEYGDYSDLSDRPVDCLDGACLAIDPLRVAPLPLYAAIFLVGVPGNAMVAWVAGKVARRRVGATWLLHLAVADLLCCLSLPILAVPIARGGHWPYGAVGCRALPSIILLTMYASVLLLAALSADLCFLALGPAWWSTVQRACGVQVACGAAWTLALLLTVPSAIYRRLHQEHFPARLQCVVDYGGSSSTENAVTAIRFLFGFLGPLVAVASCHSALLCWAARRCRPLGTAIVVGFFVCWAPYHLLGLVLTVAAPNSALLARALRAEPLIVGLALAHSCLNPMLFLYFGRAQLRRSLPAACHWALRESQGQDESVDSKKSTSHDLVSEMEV", "assay": "C5a2 receptor binding, scintillation proximity assay (125I-C5a displacement)", "conditions": "concentrations up to 1 μM", "procedure": "Membranes were prepared from Flp-In CHO-05a2 cells by a previously described method^46. Briefly, cells were washed with PBS, pH 7.4, and harvested into buffer (50 mM Tris-HCl, pH 7.4, 5 mM MgCl2, 1 mM CaCl2) before homogenizing with a Polytron homogenizer for 3 min on setting 22. Cells were centrifuged at 150×g for 5 min at 4° C. The supernatant was recovered and centrifuged at 22 000×g for 1 h at 4° C. Membrane pellets were then resuspended in 0.4 mL of ice-cold buffer (50 mM Tris-HCl, pH 7.4, 5 mM MgCl2, 1 mM CaCl2, containing 10% glycerol) with aliquots stored at −80° C. The protein concentration of the membrane preparation was determined by Bradford method^47.\nC5a2 receptor binding studies were performed using a modification of a previously described scintillation proximity assay (SPA) method^48. Briefly, C5a2 SPA studies were performed in 96-well white isoplates with clear flat bottoms (Perkin Elmer, Waltham, Mass., USA). SPA beads (200 μg/well) were added, following the addition of various concentrations of competing ligands or buffer (6 pM to 500 μM) in a total volume of 80 μL of assay buffer (50 mM Tris-HCl, pH 7.4, 0.5% BSA, 5 mM MgCl2, 1 mM CaCl2). ^125I-C5a (˜20 pM) (specific activity, 2200 Ci mmol^−1) (Perkin Elmer) was added to C5a2 membrane preparations (˜2 μg/well). The final reaction volume per well comprised 20 μL of ligand/buffer, 20 μL of SPA beads, 20 μl of membrane and the assay was initiated by the addition of 20 μL of ^125I-C5a. The plate was then sealed using TopSeal-A (Perkin Elmer) sealing film and incubated with shaking for 1 h at room temperature. Radioligand binding was then assessed for 30 s/well using a 1450 Microbeta scintillation counter (Perkin Elmer)."}, "[2]": {"assay": "Estimated blood concentration after i.v. dose", "type": "in vivo", "conditions": "C57BL/6J, whole blood, intravenous; 3 mg/kg, assuming a blood volume of 2 mL for a 25 g mouse", "procedure": "To further explore the selectivity of the ligands P32 was tested in a mouse model of C5a-induced neutrophil mobilization (FIG. 6). […] Assuming a mouse blood volume of 2 mL for a 25 g mouse, a concentration of 3 mg/kg would result in Cmax blood concentrations of ˜50 uM, a dose within the active range of this compound from our in vitro studies"}, "LPS stimulated HMDM [3]": {"system": "LPS stimulated HMDM", "assay": "Cytokine release from LPS stimulated HMDM (ELISA)", "type": "cell-based, human", "conditions": "C5a1 antagonist PMX53 10 μM pre-incubated 30 min", "procedure": "FIG. 4 is a panel of graphs showing the testing P32 and P59 for effects on cytokine release from LPS stimulated HMDM. Measurement of human inflammatory cytokines IL-6 (4A, 4B), TNFα (4C, 4D) and IL-10 (4E, 4F) release from HMDM, 24 h after co-stimulation with LPS (10 ngml^−1) and C5a (0.1-100 nM), P32 or P59 (0.1-100 μM) with or without C5a1 antagonist PMX53 (10 μM) present. Cytokine release was quantified by ELISA. Data is representative of five independent HMDM donors performed in triplicate (n=5). CTRL represents non-stimulated HMDM. Data is normalised to LPS response (100%) for each donor. Error bars represent SEM. *P<0.05, ** P<0.01, *** P<0.001, **** P<0.0001 by one-way ANOVA followed by Dunnett's post hoc test or Sidak's post hoc test for comparisons+/−PMX53.\nBriefly, HMDMs were seeded in 96 well tissue culture plates (Nunc) at 100 000 cells/well and allowed to adhere overnight at 37° C. and 5% CO2. The next day HMDMs were stimulated with E. coli derived LPS (10 ng ml^−1) only or LPS (10 ng ml^−1) and either C5a or C5a2 ligands at various concentrations (1-100 nM (C5a) or 0.1-100 μM (C5a2 ligands)). For testing cytokine release in the presence of C5a1 antagonist (PMX53), cells were pre-incubated with PMX53 at 10 μM for 30 min prior to addition of C5a or C5a2 ligands. Following ligand addition HMDMs were returned to 37° C. and 5% CO2 incubator and 24 h after stimulation supernatant was removed from cells and transferred to 96 well polypropylene microplate (Nunc) and stored at −20° C. till needed for assay. Quantification of cytokine release was performed using ELISA kits (BD OptEIA™) as per manufacturers' instructions (BD Biosciences, San Jose, Calif., USA)."}, "LPS stimulated HMDM [4]": {"system": "LPS stimulated HMDM", "conditions": "literature reference 33; cited from earlier work"}, "C5a2": {"molecular_target": "C5a2 (Homo sapiens, UniProt Q9P296)", "sequence (Q9P296 whole entry)": "as above", "sequence (P32121 whole entry partner)": "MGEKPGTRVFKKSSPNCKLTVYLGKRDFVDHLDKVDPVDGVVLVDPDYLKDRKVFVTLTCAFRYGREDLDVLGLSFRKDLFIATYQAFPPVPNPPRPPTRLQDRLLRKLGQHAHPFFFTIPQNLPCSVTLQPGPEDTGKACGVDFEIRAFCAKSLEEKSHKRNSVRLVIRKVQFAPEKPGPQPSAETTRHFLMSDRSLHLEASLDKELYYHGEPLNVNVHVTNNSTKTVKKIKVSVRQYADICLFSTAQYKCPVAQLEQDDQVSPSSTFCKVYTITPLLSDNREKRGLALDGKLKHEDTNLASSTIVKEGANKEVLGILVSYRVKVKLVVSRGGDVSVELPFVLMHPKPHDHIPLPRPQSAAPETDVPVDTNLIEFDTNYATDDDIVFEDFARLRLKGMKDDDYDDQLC", "assay": "BRET C5a2-β-arrestin 2 recruitment assay in HEK293 cells", "type": "cell-based", "parameters": "expressed in transfected cells; host or cells: HEK293 (transient)", "procedure": "Assays were performed as a ligand-induced BRET experiment similar to previously described^17, 31, 49. In brief, HEK293 cells were transiently transfected with either C5a1-Rluc8 and β-arrestin 2-Venus or C5a2-Venus and β-arrestin 2-Rluc8 or C5a1-Rluc8 and C5a2-Venus in a 100-mm dish. 24 h after transfection cells were collected and transferred to a 96-well white microplate (Corning, N.Y., USA) in phenol-red free DMEM containing 5% FBS and 25 mM HEPES (Life Technologies). Cells were allowed to settle for 24 h and then were incubated with 30 μM Enduren (Promega, Madison, Wis., USA) for 2 h at 37° C. and 5% CO2 to ensure that the substrate had reached equilibrium. Following incubation BRET baseline measurements were taken for 15 min then ligands were added to plate and BRET measurements were taken for a further 1 h at 37° C. using a POLARstar optima microplate reader (BMG Labtech, Ortenberg, Germany). Filtered light emissions were sequentially measured for 1 s in each of the following windows 460-490 nm and 520-550 nm, both before and following ligand addition. The ligand-induced BRET ratio was calculated by subtracting the ratio of 520-550 nm emission over the 460-490 nm emission for a vehicle-treated sample from a ligand-treated sample of the same aliquot of cells in triplicate. The BRET ratio was calculated by subtracting the ratio of 520-550 nm emission over the 460-490 nm emission for a cell sample containing the C5a1-Rluc8 or β-arrestin 2-Rluc8 construct from a cell sample containing both the C5a1-Rluc8 and β-arrestin 2-Venus or C5a2-Venus and β-arrestin 2-Rluc8 or C5a1-Rluc8 and C5a2-Venus constructs. Peptides were also tested for ligand-induced β-arrestin 2 recruitment at 100 μM using DiscoveRx PathHunter kits for human C5a1 and C5a2 (DiscoveRx Corporation. Birmingham, UK), according to the manufacturer's instructions."}, "C5a1-C5a2 heteromer": {"molecular_target": "T2, C5a1-C5a2 heteromer (Homo sapiens, UniProt P21730+Q9P296)", "T2 construct": "expressed in transfected cells; host or cells: HEK293 (transient)", "T2 sequence (P21730 whole entry)": "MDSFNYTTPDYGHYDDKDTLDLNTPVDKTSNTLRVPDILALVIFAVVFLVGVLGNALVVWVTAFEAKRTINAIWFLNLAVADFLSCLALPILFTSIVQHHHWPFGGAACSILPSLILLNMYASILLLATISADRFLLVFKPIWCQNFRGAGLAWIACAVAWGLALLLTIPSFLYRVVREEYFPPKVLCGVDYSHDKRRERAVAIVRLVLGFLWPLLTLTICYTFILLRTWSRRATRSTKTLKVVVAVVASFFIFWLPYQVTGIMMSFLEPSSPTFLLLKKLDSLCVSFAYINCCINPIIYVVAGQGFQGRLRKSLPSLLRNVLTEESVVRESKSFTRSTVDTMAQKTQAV", "T2 sequence (Q9P296 whole entry)": "as the sequence (Q9P296 whole entry) above", "conditions": "high concentrations of C5a, previously shown; cited from earlier work"}},
  "data": [
    {"molecule": "C3a-des Arg: human isolated C3a-des Arg/acylation-stimulating protein (ASP), purchased from Merck Biosciences", "values": [
      {"measurement": "displacement of 125I-C5a from Flp-In CHO-C5a2 membrane preparations", "setting": "[1]", "result": "do not bind"}
    ]},
    {"molecule": "Ac-RHYPYWR-OH [Peptide P32, Ac-RHYPYWR-OH]", "values": [
      {"measurement": "Cmax", "setting": "[2]", "result": "~50", "unit": "µM"}
    ]},
    {"molecule": "C3a: human isolated complement protein purchased from Merck Biosciences [Peptide C3a]", "values": [
      {"measurement": "displacement of 125I-C5a from Flp-In CHO-C5a2 membrane preparations", "setting": "[1]", "result": "do not bind"}
    ]},
    {"molecule": "C5a: complement activation peptide; human recombinant C5a purchased from Sino Biologicals (protein) TLQKKIEEIAAKYKHSVVKKCCYDGACVNNDETCEQRAARISLGPRCIKAFTECCVVASQLRANISHKDMQLGR", "values": [
      {"measurement": "IL-6 release from LPS stimulated HMDM in the presence of PMX53", "setting": "LPS stimulated HMDM [3]", "result": "completely blocked"},
      {"measurement": "IL-10 release from LPS stimulated HMDM in the presence of PMX53", "setting": "LPS stimulated HMDM [3]", "result": "completely blocked"},
      {"measurement": "TNFα release from LPS stimulated HMDM in the presence of PMX53", "setting": "LPS stimulated HMDM [3]", "result": "completely blocked"},
      {"measurement": "IL-6 release from LPS stimulated HMDMs", "setting": "LPS stimulated HMDM [4]", "result": "dose-dependently inhibits"},
      {"measurement": "IL-10 release from LPS stimulated HMDMs", "setting": "LPS stimulated HMDM [4]", "result": "increasing the release"},
      {"measurement": "TNFα release from LPS stimulated HMDMs", "setting": "LPS stimulated HMDM [4]", "result": "dose-dependently inhibits"},
      {"measurement": "C5a2-β-arrestin 2 BRET Recruitment (% of C5a)", "setting": "C5a2", "result": "100 % of C5a"},
      {"measurement": "EC50", "setting": "C5a2; calculated at ~40 min after ligand addition", "result": "50.3 ± 4.2", "unit": "nM"},
      {"measurement": "displacement of 125I-C5a from Flp-In CHO-C5a2 membrane preparations", "setting": "[1]", "result": "full inhibition"},
      {"measurement": "up-regulation of heteromer formation between C5a1-C5a2", "setting": "C5a1-C5a2 heteromer", "result": "can up-regulate heteromer formation"}
    ]},
    {"molecule": "C5a-des Arg: human isolated complement protein purchased from Merck Biosciences (protein) TLQKKIEEIAAKYKHSVVKKCCYDGACVNNDETCEQRAARISLGPRCIKAFTECCVVASQLRANISHKDMQLG", "values": [
      {"measurement": "displacement of 125I-C5a from Flp-In CHO-C5a2 membrane preparations", "setting": "[1]", "result": "full inhibition"}
    ]}
  ]
}
